One experiment deals with T1, Kelch domain of Keap1.
T1 construct: Cloned into pET-28a in frame with an N-terminal His tag and a TEV protease cleavage site; stored in 20 mM Tris pH 7.5, 5 mM DTT; source: E. coli BL21 (DE3), purified (Ni-NTA, His tag cut off, Ni-NTA flow-through, Superdex 75, if necessary Mono Q); not shown: His tag, N-terminal, cleaved
T1 chain: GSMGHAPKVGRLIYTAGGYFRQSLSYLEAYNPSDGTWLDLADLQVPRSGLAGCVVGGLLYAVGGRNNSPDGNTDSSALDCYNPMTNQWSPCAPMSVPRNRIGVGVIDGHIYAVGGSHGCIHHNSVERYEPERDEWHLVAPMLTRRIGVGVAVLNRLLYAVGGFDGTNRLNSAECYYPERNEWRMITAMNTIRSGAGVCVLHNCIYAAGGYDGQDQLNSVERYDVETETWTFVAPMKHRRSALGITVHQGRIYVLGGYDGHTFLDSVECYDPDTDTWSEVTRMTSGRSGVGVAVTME
The experiment can be described thus: SPR; Biacore competition assay; concentration of LS146-scFv varied, percent inhibition fitted to a variable slope model; what was immobilised is not told. As to conditions: both partners purified. (SPR reads the build-up and loss of mass on a sensor chip optically.)

The target of experiment [1] is Keap1 (Homo sapiens).
Experiment [2] addresses T2, Keap1 (Homo sapiens).
T2 construct: Keap1, BTB-Kelch substrate adaptor protein; the crystallised construct is in PDB 5F72; source: recombinant, purified (procedures in Supplementary Methods)
The experiment can be described thus: not stated; potency of LS146-scFv against its Fab form (Supplementary Fig. S6).

Residue numbers refer to the chain shown, from its start.

The IC50 is the concentration at which inhibition is half-maximal. Low values mean inhibition by little substance, high ones a need for much substance.

B1: LS146-scFv (scFv)
scFv: EVQLVESGGGLVQPGGSLRLSCAASGFAISASSIHWVRQAPGKCLEWVASIDPETGETLYAKSVAGRFTISADTSKNTAYLQMNSLRAEDTAVYYCARAYAGDGVYYADVWGQGTLVTVSSGGGGSGGGGSGGGGSGGGGSDIQMTQSPSSLSASVGDRVTITCRASQSVSSAVAWYQQKPGKAPKLLIYSASSLYSGVPSRFSGSRSGTDFTLTISSLQPEDFATYYCQQSYSFPSTFGCGTKVEIKRT
notes: VH of LS146-scFv; (Gly4Ser)4 linker; VL of LS146-scFv; two residues between VL and the TEV site; also called scFv-LS146; source: CHO-S XE cells, transiently transfected, purified (HisTrap excel, His tag removed, HisTrap flow-through, Superdex 75); not shown: His10 (after a TEV protease cleavage site), C-terminal, cleaved
Consider B1, for which, in the experiment with Kelch domain of Keap1, the IC50 came to 79 nM.

B2: G55 (antibody, V domains shown)
VH: EVQLVESGGGLIRPGGSLRLSCKGSGFIFENFGFGWVRQGPGKGLEWVSGTNWNGGDSRYGDSVKGRFTISRDNSNNFVYLQMNSLRPEDTAIYYCARGTDYTIDETGERYQGSGTFWYFDVWGRGTLVTVSS
VL: EIVLTQSPDTLSLSPGERATLSCRASQSVHSRYFAWYQHKPGQPPRLLIYGGSTRATGIPNRFSAGGSGTQFTLTVNRLEAEDFAVYYCQQYGASPYTFGQGTKVEIR
For the molecule B2, the binding result with Keap1 [1] is listed as “binds”.

B3: G56 (antibody, V domains shown)
VH: B2 VH with Y111A
VL: EIVLTQSPATLSVSPGERATLSCRASQNVHPRYFAWYQQKRGQSPRLLIHSGSTRAAGIADRFSGGGSGMHFTLTITRVEPEDFAVYFCQQYGGSPYTFGQGTRVELR
Consider B3, for which, in the experiment with Keap1 [1], the binding result was “binds”.

B4: G54 (antibody, V domains shown)
VH: EVQLVESGGGLVQPGGSLRLSCAASGFAISASSIHWVRQAPGKGLEWVASISPETGETYYADSVAGRFTISADTSKNTAYLQMNSLRAEDTAVYYCARQGYAARSGAGFDYWGQGTLVTVSS
VL: DIQMTQSPSSLSASVGDRVTITCRASQSVSSAVAWYQQKPGKAPKLLIYSASSLYSGVPSRFSGSRSGTDFTLTISSLQPEDFATYYCQQSYSFPSTFGQGTKVEIK
For the molecule B4, the binding result with Keap1 [1] was “binds”.

B5: LS146-scFv (scFv, V domains shown)
VH: EVQLVESGGGLVQPGGSLRLSCAASGFAISASSIHWVRQAPGKCLEWVASIDPETGETLYAKSVAGRFTISADTSKNTAYLQMNSLRAEDTAVYYCARAYAGDGVYYADVWGQGTLVTVSS
VL: B4 VL with Q100C
notes: VH of LS146; (Gly4Ser)4 linker, written out; VL of LS146; The His10 tag is cleavable by TEV protease; also called LS146 formatted as a single chain Fv; crystal LS146-scFv; source: CHO-S XE cells; purification in Supplementary Methods
As to B5, the “fold lower potency than the Fab form (LS146 Fab)” value with Keap1 [2] was determined as 3 fold.

For the origin of these results see PMC5269676 (Scientific Reports, 2017).
